Positions count from the first letter of the chain named. In names and notes the source's numbering stands.
T1: human IL-12 (human, UniProt P29460 23-328; P29459 23-219)
T1 construct: also called Interleukin-12
T1 sequence 1: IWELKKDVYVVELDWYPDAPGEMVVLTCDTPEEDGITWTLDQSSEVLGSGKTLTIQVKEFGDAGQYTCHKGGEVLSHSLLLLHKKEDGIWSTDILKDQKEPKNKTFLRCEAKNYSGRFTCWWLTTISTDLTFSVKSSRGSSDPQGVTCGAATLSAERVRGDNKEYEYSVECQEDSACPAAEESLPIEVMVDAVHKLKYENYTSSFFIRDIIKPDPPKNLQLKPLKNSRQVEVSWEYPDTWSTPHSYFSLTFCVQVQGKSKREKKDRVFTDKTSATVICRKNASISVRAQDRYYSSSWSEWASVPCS
T1 sequence 2: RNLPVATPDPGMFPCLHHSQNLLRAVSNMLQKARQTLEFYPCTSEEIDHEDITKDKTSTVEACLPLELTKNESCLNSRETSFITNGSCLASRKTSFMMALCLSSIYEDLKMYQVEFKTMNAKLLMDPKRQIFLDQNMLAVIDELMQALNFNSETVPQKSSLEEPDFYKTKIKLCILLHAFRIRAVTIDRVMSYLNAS

B1: Anti-IL-12 antibody Ab1 variant W103L VH/L46Q, Y49A VL (antibody, name in Kabat numbering)
heavy: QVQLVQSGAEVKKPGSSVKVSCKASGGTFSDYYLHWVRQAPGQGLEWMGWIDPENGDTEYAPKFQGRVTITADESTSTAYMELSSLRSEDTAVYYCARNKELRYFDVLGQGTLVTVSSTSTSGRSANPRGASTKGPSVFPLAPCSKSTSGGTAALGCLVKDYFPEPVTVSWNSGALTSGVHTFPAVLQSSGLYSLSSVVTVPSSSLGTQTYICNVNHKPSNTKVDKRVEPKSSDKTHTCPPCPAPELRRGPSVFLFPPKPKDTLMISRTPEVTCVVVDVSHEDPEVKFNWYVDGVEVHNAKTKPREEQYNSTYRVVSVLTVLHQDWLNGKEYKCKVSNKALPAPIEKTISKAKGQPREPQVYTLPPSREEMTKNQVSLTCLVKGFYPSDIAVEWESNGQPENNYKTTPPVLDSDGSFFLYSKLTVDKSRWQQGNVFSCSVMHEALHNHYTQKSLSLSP
light: DIVMTQSPLSLPVTPGEPASISCRASQSISINLHWYQQKPGQAPRQLIAFASQSISGVPSRFSGSGSGTDFTLTISSLQPEDFATYYCQQSNSFPLTFGQGTKVEIKRTVAAPSVFIFPPSDEQLKSGTASVVCLLNNFYPREAKVQWKVDNALQSGNSQESVTEQDSKDSTYSLSSTLTLSKADYEKHKVYACEVTHQGLSSPVTKSFNRGEC
notes: Ab1 with VH/VL interface substitutions; Kabat numbering
B2: Anti-IL-12 antibody Ab1 variant Y91A VH/A43Q, Y49A VL (antibody, name in Kabat numbering, V domains shown)
VH: QVQLVQSGAEVKKPGSSVKVSCKASGGTFSDYYLHWVRQAPGQGLEWMGWIDPENGDTEYAPKFQGRVTITADESTSTAYMELSSLRSEDTAVYACARNKELRYFDVWGQGTLVTVSS
VL: DIVMTQSPLSLPVTPGEPASISCRASQSISINLHWYQQKPGQQPRLLIAFASQSISGVPSRFSGSGSGTDFTLTISSLQPEDFATYYCQQSNSFPLTFGQGTKVEIKR
notes: as for B1
B3: Anti-IL-12 antibody Ab1 variant Y91A VH/Y49A, Y87L VL (antibody, name in Kabat numbering, V domains shown)
VH: B2 VH
VL: B2 VL with Q43A, Y87L
notes: as for B1
B4: Anti-IL-12 antibody Ab1 variant Y91M VH/A43Q, P44A, Y49A VL (antibody, name in Kabat numbering, V domains shown)
VH: B2 VH with A95M
VL: B2 VL with P44A
notes: as for B1
B5: Anti-IL-12 antibody Ab1 variant W103M VH/Y49A, Y87L VL (antibody, name in Kabat numbering)
heavy: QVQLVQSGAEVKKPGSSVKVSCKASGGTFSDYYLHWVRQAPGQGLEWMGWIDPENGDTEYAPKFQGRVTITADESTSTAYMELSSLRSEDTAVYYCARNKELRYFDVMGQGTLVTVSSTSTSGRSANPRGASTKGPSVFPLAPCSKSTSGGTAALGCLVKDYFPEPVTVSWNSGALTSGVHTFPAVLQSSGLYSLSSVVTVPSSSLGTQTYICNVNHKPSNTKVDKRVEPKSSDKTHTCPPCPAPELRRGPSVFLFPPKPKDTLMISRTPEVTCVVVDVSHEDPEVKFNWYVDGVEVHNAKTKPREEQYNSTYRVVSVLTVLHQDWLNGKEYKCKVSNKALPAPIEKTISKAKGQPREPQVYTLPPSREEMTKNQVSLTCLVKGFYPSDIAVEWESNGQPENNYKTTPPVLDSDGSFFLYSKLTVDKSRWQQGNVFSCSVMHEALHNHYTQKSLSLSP
light: B1 light with Q46L, Y87L
notes: as for B1
B6: Anti-IL-12 antibody Ab1 variant W103M VH/L46Q, Y49A VL (antibody, name in Kabat numbering)
heavy: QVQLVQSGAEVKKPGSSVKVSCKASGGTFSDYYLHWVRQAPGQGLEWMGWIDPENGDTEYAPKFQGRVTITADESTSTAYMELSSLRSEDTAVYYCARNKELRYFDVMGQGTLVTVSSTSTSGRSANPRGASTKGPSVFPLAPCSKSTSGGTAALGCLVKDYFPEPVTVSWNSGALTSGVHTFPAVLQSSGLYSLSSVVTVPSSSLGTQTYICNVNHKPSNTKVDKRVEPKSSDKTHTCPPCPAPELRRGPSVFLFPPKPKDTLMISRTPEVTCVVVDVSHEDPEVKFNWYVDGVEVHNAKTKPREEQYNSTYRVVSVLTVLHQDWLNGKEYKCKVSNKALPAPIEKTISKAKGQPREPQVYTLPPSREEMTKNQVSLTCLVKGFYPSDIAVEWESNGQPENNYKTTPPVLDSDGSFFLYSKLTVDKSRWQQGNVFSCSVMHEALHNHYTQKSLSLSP
light: B1 light
notes: as for B1
B7: Anti-IL-12 antibody Ab1 variant W103L VH/P44A, Y49A VL (antibody, name in Kabat numbering)
heavy: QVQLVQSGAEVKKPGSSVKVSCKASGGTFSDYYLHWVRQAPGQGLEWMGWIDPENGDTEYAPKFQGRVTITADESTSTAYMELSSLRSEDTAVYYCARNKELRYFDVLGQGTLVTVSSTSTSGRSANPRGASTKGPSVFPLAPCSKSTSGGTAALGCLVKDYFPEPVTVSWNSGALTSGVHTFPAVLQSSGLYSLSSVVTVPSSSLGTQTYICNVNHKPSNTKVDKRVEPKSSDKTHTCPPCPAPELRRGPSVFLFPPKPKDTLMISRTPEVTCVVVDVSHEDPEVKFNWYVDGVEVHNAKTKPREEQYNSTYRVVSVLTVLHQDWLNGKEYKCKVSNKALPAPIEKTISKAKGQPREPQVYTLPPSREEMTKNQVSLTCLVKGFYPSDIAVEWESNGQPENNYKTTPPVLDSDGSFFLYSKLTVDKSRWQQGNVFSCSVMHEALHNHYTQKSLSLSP
light: B1 light with P44A, Q46L
notes: as for B1
B8: Anti-IL-12 antibody Ab1 variant Y91A VH/P44A, Y49A VL (antibody, name in Kabat numbering, V domains shown)
VH: B2 VH
VL: B2 VL with Q43A, P44A
notes: as for B1
B9: Anti-IL-12 antibody Ab1 variant Y91A VH/- (antibody, name in Kabat numbering, V domains shown)
VH: B2 VH
VL: B2 VL with Q43A, A49Y
notes: as for B1
B10: Anti-IL-12 antibody Ab1 variant Y91M VH/A43Q, L46Q, Y49A VL (antibody, name in Kabat numbering, V domains shown)
VH: B2 VH with A95M
VL: B2 VL with L46Q
notes: as for B1
B11: Anti-IL-12 antibody Ab1 variant W103M VH/P44A, Y49A VL (antibody, name in Kabat numbering)
heavy: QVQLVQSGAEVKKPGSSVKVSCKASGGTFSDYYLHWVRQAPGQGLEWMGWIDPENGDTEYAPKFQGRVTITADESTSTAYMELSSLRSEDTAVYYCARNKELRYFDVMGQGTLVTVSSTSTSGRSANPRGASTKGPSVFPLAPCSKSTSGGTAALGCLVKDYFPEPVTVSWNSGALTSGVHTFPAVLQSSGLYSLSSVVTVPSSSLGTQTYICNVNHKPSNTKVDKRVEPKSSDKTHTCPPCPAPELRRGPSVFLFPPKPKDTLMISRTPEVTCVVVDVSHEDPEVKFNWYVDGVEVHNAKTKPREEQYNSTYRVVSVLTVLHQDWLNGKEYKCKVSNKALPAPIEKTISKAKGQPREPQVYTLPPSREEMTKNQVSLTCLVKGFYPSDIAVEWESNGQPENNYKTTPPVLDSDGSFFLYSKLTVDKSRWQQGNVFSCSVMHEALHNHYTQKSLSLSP
light: B1 light with P44A, Q46L
notes: as for B1
B12: Anti-IL-12 antibody Ab1 variant Y91M VH/Y49A, F98L VL (antibody, name in Kabat numbering, V domains shown)
VH: B2 VH with A95M
VL: B2 VL with Q43A, F98L
notes: as for B1
B13: Anti-IL-12 antibody Ab1 variant W103L VH/Y49A, Y87L VL (antibody, name in Kabat numbering)
heavy: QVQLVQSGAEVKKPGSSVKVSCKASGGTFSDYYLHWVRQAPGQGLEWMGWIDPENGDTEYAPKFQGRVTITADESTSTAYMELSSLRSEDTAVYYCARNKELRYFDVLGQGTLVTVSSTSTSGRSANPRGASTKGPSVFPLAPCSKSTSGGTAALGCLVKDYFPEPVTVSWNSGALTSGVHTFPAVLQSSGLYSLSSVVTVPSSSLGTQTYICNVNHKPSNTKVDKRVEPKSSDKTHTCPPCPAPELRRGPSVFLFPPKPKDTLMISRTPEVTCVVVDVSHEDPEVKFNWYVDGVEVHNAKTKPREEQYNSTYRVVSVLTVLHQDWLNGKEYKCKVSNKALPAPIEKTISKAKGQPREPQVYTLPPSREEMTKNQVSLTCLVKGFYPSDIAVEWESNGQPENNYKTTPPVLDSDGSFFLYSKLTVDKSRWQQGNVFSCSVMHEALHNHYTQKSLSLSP
light: B1 light with Q46L, Y87L
notes: as for B1
B14: Anti-IL-12 antibody Ab1 variant Y91L VH/- (antibody, name in Kabat numbering, V domains shown)
VH: B2 VH with A95L
VL: B2 VL with Q43A, A49Y
notes: as for B1
B15: Anti-IL-12 antibody Ab1 variant Y91A VH/L46Q, Y49A VL (antibody, name in Kabat numbering, V domains shown)
VH: B2 VH
VL: B2 VL with Q43A, L46Q
notes: as for B1
B16: Anti-IL-12 antibody Ab1 variant Y91M VH/L46Q, Y49A, Y87M VL (antibody, name in Kabat numbering, V domains shown)
VH: B2 VH with A95M
VL: B2 VL with Q43A, L46Q, Y87M
notes: as for B1
B17: Anti-IL-12 antibody Ab1 variant Y91M VH/Y49A, Y87L VL (antibody, name in Kabat numbering, V domains shown)
VH: B2 VH with A95M
VL: B2 VL with Q43A, Y87L
notes: as for B1
B18: Anti-IL-12 antibody Ab1 variant Y91M VH/L46Q, Y49A VL (antibody, name in Kabat numbering, V domains shown)
VH: B2 VH with A95M
VL: B2 VL with Q43A, L46Q
notes: as for B1
B19: Anti-IL-12 antibody Ab1 variant W103M VH/A43Q, Y49A VL (antibody, name in Kabat numbering)
heavy: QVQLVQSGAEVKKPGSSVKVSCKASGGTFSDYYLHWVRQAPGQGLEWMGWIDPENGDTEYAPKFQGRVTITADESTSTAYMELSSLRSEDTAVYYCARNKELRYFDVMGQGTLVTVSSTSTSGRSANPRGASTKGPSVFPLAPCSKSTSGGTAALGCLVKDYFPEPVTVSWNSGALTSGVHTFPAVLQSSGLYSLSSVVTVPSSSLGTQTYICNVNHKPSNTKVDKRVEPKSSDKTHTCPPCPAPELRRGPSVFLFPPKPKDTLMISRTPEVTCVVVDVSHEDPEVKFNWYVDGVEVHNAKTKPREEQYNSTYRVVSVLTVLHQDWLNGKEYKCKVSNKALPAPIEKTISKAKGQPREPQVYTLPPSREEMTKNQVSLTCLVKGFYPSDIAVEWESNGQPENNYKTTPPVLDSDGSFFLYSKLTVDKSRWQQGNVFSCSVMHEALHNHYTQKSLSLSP
light: B1 light with A43Q, Q46L
notes: as for B1
B20: Anti-IL-12 antibody Ab1 variant Y91M VH/P44A, Y49A VL (antibody, name in Kabat numbering, V domains shown)
VH: B2 VH with A95M
VL: B2 VL with Q43A, P44A
notes: as for B1
B21: Anti-IL-12 antibody Ab1 variant Y91M VH/- (antibody, name in Kabat numbering, V domains shown)
VH: B2 VH with A95M
VL: B2 VL with Q43A, A49Y
notes: as for B1
B22: Anti-IL-12 antibody Ab1 variant W103M VH/- (antibody, name in Kabat numbering)
heavy: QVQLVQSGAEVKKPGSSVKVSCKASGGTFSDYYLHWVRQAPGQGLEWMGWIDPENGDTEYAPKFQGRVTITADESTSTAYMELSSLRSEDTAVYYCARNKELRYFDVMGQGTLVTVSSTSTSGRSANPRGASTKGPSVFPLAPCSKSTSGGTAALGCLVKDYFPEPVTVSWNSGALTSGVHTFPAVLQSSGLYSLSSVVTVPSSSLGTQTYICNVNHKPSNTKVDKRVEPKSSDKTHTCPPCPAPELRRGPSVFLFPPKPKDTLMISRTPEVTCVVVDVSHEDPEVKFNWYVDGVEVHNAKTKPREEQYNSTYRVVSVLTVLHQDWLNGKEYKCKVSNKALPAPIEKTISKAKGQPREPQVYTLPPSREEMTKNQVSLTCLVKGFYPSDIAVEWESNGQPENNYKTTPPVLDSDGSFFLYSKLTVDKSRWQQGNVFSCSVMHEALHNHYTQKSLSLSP
light: B1 light with Q46L, A49Y
notes: as for B1
B23: Anti-IL-12 antibody Ab1 variant Y91M VH/A43Q, Y49A VL (antibody, name in Kabat numbering, V domains shown)
VH: B2 VH with A95M
VL: B2 VL
notes: as for B1

Target: T1, human IL-12
Assay: SPR (Biacore T200), 37 C, pH 7.4; captured antibody, IL-12 analyte
Procedure: The affinity of anti-IL-12 antibodies binding to human IL-12 at pH 7.4 were determined at 37 degrees C. using Biacore T200 instrument (Cytiva). Anti-human Fc antibody (Cytiva) was immobilized onto all flow cells (FCs) of a CM4 sensor chip using amine coupling kit (Cytiva). All antibodies and analytes were prepared in ACES pH 7.4 containing 20 mM ACES, 150 mM NaCl, 0.05% Tween 20, 0.005% NaN₃. Each antibody was captured onto the sensor surface by anti-human Fc antibody. Antibody capture levels were aimed at 50 response unit (RU). 5 nM of human IL-12 were injected as analyte, followed by dissociation. Sensor surface was regenerated each cycle with 3M MgCl₂. […] Based on the results in Table 9, it is observed that binding kinetics of anti-IL-12 antibody AbI variants towards IL-12 were not drastically changed compared to control (−/−).

Row | Kd [nM] | Binder
1 | 3.86 | B1
2 | 1.91 | B2
3 | 2.82 | B3
4 | 1.69 | B4
5 | 1.79 | B5
6 | 3.52 | B6
7 | 1.34 | B7
8 | 2.32 | B8
9 | 0.948 | B9
10 | 4.41 | B10
11 | 1.07 | B11
12 | 1.07 | B12
13 | 1.51 | B13
14 | 1.21 | B14
15 | 3.97 | B15
16 | 3.83 | B16
17 | 3.1 | B17
18 | 3.83 | B18
19 | 1.45 | B19
20 | 1.83 | B20
21 | 0.827 | B21
22 | 0.631 | B22
23 | 1.87 | B23
